For assay [1], the target named is some of the FcγR expressing cell lines. The assay is described as follows: flow cytometry on CHO cells stably expressing FcγR, anti-human IgG secondary (FIG. 30B). (In general: A flow cytometer gives signals particle by particle.)
The target of assay [2] is T1, human CD137 on cells (human, UniProt Q07011 24-255). The assay is described as follows: cell-based or functional assay.
Assay [3] concerns the target T1, human CD137 on cells. Briefly: cell-based or functional assay. This is another data set of the same source.
Assay [4] addresses T1, human CD137 on cells. Briefly: flow cytometry, % positive cells of CD8 T cells gated from CD3-stimulated human PBMC, exp 1, n=3 donors. The protocol: (§1) FACS staining and analysis of CD8 T cells: Following 48 h of incubation with or without CD3, human and cynomolgus PBMC were harvested, pooled, recounted and diluted in FACS buffer (PBS +0.5% BSA, 0.05% NaN₃) to a concentration of 5×10⁶ cells/mL. 50 μL (0.25×10⁶ cells) of cell solution was added to a 96-well FACS staining plate (Falcon #351190). Following 10 min of Fc-blocking in RT using Beriglobin (hIgG, 200 μg/mL), cells were washed in FACS buffer and then incubated for 1 h in 4° C. with 100 μL of the biotinylated ALG.APV-210 or negative control. The antibodies were added in a serial dilution starting either at 5 μg/mL titrating down in a 12 step 1/3 dilution down to 0.0003 μg/mL (exp 1) or 1 μg/mL titrating down in a 12 step 1/2 dilution down to 0.0005 μg/mL (exp 2). […] Cells were analysed for ALG.APV-210 binding using flow cytometry by gating on viable, single cells expressing CD3 and CD8. MFI values (FMO subtracted) from 2 independent experiments as well as normalized pooled data from 2 experiments and EC₅₀-values were determined and plotted using GraphPad Prism 7, non-linear regression log (agonist) vs. normalized response—variable slope, n=6 donors/group.

The target in assay [5] is T1, human CD137 on cells. Briefly: flow cytometry, normalized % positive cells of CD8 T cells from CD3-stimulated human PBMC, pooled data of 2 exp, n=6 donors. The protocol: as §1
The target in assay [6] is T1, human CD137 on cells. Briefly: flow cytometry, CD8 T cells gated from CD3-stimulated human PBMC, exp 2, n=3 donors. The protocol:
as §1

The target of assay [7] is T1, human CD137 on cells. Briefly: flow cytometry, CD8 T cells gated from CD3-stimulated human PBMC, exp 1, n=3 donors. Here is the method:
as §1

Assay [8] has as its target T2, cynomolgus CD137 on cells (cynomolgus macaque, UniProt A9YYE7 24-254).
T2 construct: whole, on cells; also called cynomolgus macaque CD137; cynomolgus 4-1BB
The assay is described as follows: flow cytometry, CD8 T cells gated from CD3-stimulated cynomolgus PBMC, exp 2, n=3 donors. The protocol:
(§2) Isolation and stimulation of cynomolgus PBMC: Cynomolgus PBMC were isolated from 20 mL of cynomolgus monkey blood from 3 different donors, obtained from Silabe, France by density gradient centrifugation using Lympholyte-mammal (Cedarlane labs) according to manufacturer's instructions. Non-tissue treated 96 well plates were pre-coated overnight at 4° C. with 3 μg/mL α-monkey CD3, clone FN-18 (Invitrogen #APS0301). The cynomolgus PBMC were then stimulated identically as the human PBMC described above
(§3) FACS staining and analysis of CD8 T cells: Following 48 h of incubation with or without CD3, human and cynomolgus PBMC were harvested, pooled, recounted and diluted in FACS buffer (PBS +0.5% BSA, 0.05% NaN₃) to a concentration of 5×10⁶ cells/mL. 50 μL (0.25×10⁶ cells) of cell solution was added to a 96-well FACS staining plate (Falcon #351190). […] Cells were analysed for ALG.APV-210 binding using flow cytometry by gating on viable, single cells expressing CD3 and CD8. MFI values (FMO subtracted) from 2 independent experiments as well as normalized pooled data from 2 experiments and EC₅₀-values were determined and plotted using GraphPad Prism 7, non-linear regression log (agonist) vs. normalized response—variable slope, n=6 donors/group.

The target in assay [9] is T2, cynomolgus CD137 on cells. Briefly: flow cytometry, CD8 T cells gated from CD3-stimulated cynomolgus PBMC, exp 1, n=3 donors. The protocol: as §2, §3
Assay [10] addresses T2, cynomolgus CD137 on cells. Briefly: flow cytometry, % positive cells of CD8 T cells gated from CD3-stimulated cynomolgus PBMC, exp 1, n=3 donors. The protocol:
as §2, §3

These results are taken from US20200223933A1 (APTEVO RESERCH AND DEVELOPMENT, published 2020).

For orientation: EC50 (read off the curve) means the midpoint of the concentration-response curve. The EC50 is the concentration needed to bring the measured effect to its halfway point. Higher therefore signals a less potent agent.

T1 sequence (Q07011 24-255 limits assumed): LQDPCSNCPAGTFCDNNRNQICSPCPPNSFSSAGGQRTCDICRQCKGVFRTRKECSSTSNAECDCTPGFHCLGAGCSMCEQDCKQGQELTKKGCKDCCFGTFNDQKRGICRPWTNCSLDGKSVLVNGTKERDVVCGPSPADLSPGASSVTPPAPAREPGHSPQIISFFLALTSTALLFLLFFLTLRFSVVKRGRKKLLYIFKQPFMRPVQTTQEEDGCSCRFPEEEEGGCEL
T2 sequence (A9YYE7 entry or part of it): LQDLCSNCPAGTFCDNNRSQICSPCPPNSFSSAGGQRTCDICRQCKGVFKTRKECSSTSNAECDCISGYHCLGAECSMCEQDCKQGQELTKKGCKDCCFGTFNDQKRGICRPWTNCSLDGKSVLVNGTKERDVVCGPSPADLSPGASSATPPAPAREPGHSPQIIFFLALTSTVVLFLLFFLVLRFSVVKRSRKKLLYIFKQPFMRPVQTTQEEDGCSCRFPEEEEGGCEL

For the molecule control human IgG1 molecule (antibody), the concentration at which significant binding was observed in [1] turned out to be 4 nM.

B1: ALG.APV-210 (bispecific antibody)
chain: EVQLLESGGGLVQPGGSLRLSCAASGFTFSHGSMYWVRQAPGKGLEWVSSISSGSGSTYYADSVKGRFTISHDNSKNTLYLQMNSLRAEDTAVYYCARSSYYGSYYSIDYWGQGTLVTVSSGGGGSGGGGSGGGGSGGGGSDIQMTQSPSSLSASVGDRVTITCRASQSISSYLNWYQQKPGKAPKLLIYAASSLQSGVPSRFSGSGSGTDFTLTISSLQPEDFATYYCQQYYDNLPTFGQGTKLEIKEPKSSDKTHTCPPCPAPEAAGAPSVFLFPPKPKDTLMISRTPEVTCVVVDVSHEDPEVKFNWYVDGVEVHNAKTKPREEQYNSTYRVVSVLTVLHQDWLNGKEYKCAVSNKALPAPIEKTISKAKGQPREPQVYTLPPSRDELTKNQVSLTCLVKGFYPSDIAVEWESNGQPENNYKTTPPVLDSDGSFFLYSKLTVDKSRWQQGNVFSCSVMHEALHNHYTQKSLSLSPGSGGGGSGGGGSGGGGSPSEVQLLESGGGLVQPGGSLRLSCAASGFTFSSYAMSWVRQAPGKCLEWVSAISGSGGSTYYADSVKGRFTISRDNSKNTLYLQMNSLRAEDTAVYYCARYYGGYYSAWMDYWGQGTLVTVSSGGGGSGGGGSGGGGSGGGGSDIQMTQSPSSLSASVGDRVTITCRASQSISSFLNWYQQKPGKAPKLLIYAASSLQSGVPSRFSGSGSGTDFTLTISSLQPEDSATYYCQQTYGYLHTFGCGTKLEIKR
As for B1, in assay [2], the “maximal IFNγ release with CT26-h5T4^low cells relative to CT26-h5T4^high cells” value turned out to be 82% and the “maximal IFNγ release with CT26-wt cells relative to CT26-h5T4^high cells” value worked out at 7%. For the same molecule, in assay [3], the “EC50 (nM), IFNγ release of human CD8 T cells with CT26-h5T4^high cells” value was determined as 0.41 nM and the “EC50 (nM), IFNγ release of human CD8 T cells with CT26-h5T4^low cells” value is 0.24 nM.

B2: biotinylated ALG.APV-210 (bispecific antibody)
chain: EVQLLESGGGLVQPGGSLRLSCAASGFTFSHGSMYWVRQAPGKGLEWVSSISSGSGSTYYADSVKGRFTISHDNSKNTLYLQMNSLRAEDTAVYYCARSSYYGSYYSIDYWGQGTLVTVSSGGGGSGGGGSGGGGSGGGGSDIQMTQSPSSLSASVGDRVTITCRASQSISSYLNWYQQKPGKAPKLLIYAASSLQSGVPSRFSGSGSGTDFTLTISSLQPEDFATYYCQQYYDNLPTFGQGTKLEIKEPKSSDKTHTCPPCPAPEAAGAPSVFLFPPKPKDTLMISRTPEVTCVVVDVSHEDPEVKFNWYVDGVEVHNAKTKPREEQYNSTYRVVSVLTVLHQDWLNGKEYKCAVSNKALPAPIEKTISKAKGQPREPQVYTLPPSRDELTKNQVSLTCLVKGFYPSDIAVEWESNGQPENNYKTTPPVLDSDGSFFLYSKLTVDKSRWQQGNVFSCSVMHEALHNHYTQKSLSLSPGSGGGGSGGGGSGGGGSPSEVQLLESGGGLVQPGGSLRLSCAASGFTFSSYAMSWVRQAPGKCLEWVSAISGSGGSTYYADSVKGRFTISRDNSKNTLYLQMNSLRAEDTAVYYCARYYGGYYSAWMDYWGQGTLVTVSSGGGGSGGGGSGGGGSGGGGSDIQMTQSPSSLSASVGDRVTITCRASQSISSFLNWYQQKPGKAPKLLIYAASSLQSGVPSRFSGSGSGTDFTLTISSLQPEDSATYYCQQTYGYLHTFGCGTKLEIKR
modifications: biotinylated (sites not given)
notes: also called ALG.APV-210 (biotinylated for FACS detection)
Consider B2, for which the “EC50 (read off the curve)” value was approximately 0.03 nM in assay [4]; approximately 0.2 nM in assay [6]; approximately 0.3 nM in [7]; approximately 0.2 nM in assay [8]; approximately 0.3 nM in assay [9]; approximately 0.02 nM in [10]. The midpoint of the response in [5], the EC50, lay at 0.027 nM.
